Laboratory results taken from patent US20080026996A1, “Selective Vpac2 Receptor Reptide Agonists” (ELI LILLY AND COMPANY, priority 2004, published 2008).
Where no end group is shown, it is not given here. [ ]: non-standard residue; d: D form. The star is where a group is joined. Orn = NCCC[C@H](N)C(=O)O; Hexanoyl = CCCCCC(=O)*; Aib = CC(C)(N)C(=O)O

T1: human VPAC2 receptor (human, UniProt P41587 24-438)
T1 sequence (looked up): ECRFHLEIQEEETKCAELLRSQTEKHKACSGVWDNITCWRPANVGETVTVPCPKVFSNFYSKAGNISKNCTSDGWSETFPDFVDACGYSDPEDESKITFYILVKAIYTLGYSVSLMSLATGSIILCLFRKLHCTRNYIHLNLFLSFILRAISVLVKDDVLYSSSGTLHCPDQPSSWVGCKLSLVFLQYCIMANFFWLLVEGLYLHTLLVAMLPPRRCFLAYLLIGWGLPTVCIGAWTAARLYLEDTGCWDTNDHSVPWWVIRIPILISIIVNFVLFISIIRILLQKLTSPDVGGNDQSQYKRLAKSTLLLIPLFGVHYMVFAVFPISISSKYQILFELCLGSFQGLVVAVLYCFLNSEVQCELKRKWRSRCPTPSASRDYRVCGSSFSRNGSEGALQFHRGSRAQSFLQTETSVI


molecular target: T1, human VPAC2 receptor; experiment: cell-based or functional assay

Binder | EC50 cAMP, Alpha Screen | EC50 cAMP, DiscoveRx
Hexanoyl-HSDAVFTDNYTRLR[Aib]QVAA[Aib]KYLQSIKPKGGPSSGAPPPS (ends and bridges not checked) [P350] | 0.13 nM | 
HSDAVFTDNYTRLXXQVAAXKYLQSIKNKRYGGPSSGAPPPS (N-terminal hexanoyl (C6); hR at 14; Aib at 15, 20) [P316] | 0.3 nM | 
HSDAVFTDNYTRLXXQVAAXKYLQSIKNKRYGGPSSGAPPPS (N-terminal hexanoyl (C6); Cit at 14; Aib at 15, 20) [P320] | 0.49 nM | 
Hexanoyl-HSDAVFTDNYTRLR[Aib]QVAA[Aib]KYLQSIKQKGGPSSGAPPPS (ends and bridges not checked) [P294] | 0.24 nM | 
Hexanoyl-HSDAVFTDNYTRL[Aib]KQVAA[Aib]KYLQSIKQKGGPSSGAPPPS (ends and bridges not checked) [P293] | 1.89 nM | 
Hexanoyl-HSDAVFTDNYTRLQKQVAA[Aib]KYLQSIKNKRYGGPSSGAPPPS (ends and bridges not checked) [P250] | 0.18 nM | 
Hexanoyl-HSDAVFTDNYTRLRKQVAAKKALQSIKNKRYGGPSSGAPPPS [P229] | 2.6 nM | 
Hexanoyl-HSDAVFTDNYTRLRKQVAAKKY[Aib]QSIKNKRYGGPSSGAPPPS (ends and bridges not checked) [P236] | 0.12 nM | 
Hexanoyl-HSDAVFTDNYTRL[Aib]KQVAA[Aib]KYLQSIKQGGPSSGAPPPS (ends and bridges not checked) [P296] | 6.69 nM | 
Hexanoyl-HSDAVFTDNYTRLR[Aib]QVAA[Aib]KYLQSIK[Aib]GGPSSGAPPPS (ends and bridges not checked) [P355] | 0.1 nM | 
Hexanoyl-HSDAVFTDNYTRL[Orn][Aib]QVAA[Aib]KYLQSIKNKRYGGPSSGAPPPS (ends and bridges not checked) [P319] | 0.26 nM | 
Hexanoyl-HSDAVFTDNYTRL[Aib]KQVAAKQYLQSIKNKRYGGPSSGAPPPS (ends and bridges not checked) [P249] | 0.93 nM | 
Hexanoyl-HSDAVFTDNYTRL[Aib]KQVAAVKYLQSIKNKRYGGPSSGAPPPS (ends and bridges not checked) [P269] | 1.02 nM | 
Hexanoyl-HSDAVFTDNYTRL[Aib]KQVAAAKYLQSIKNKRYGGPSSGAPPPS (ends and bridges not checked) [P260] | 0.83 nM | 
Hexanoyl-HSDAVFTDNYTRL[Aib]KQVAALKYLQSIKNKRYGGPSSGAPPPS (ends and bridges not checked) [P259] | 1.08 nM | 
Hexanoyl-HSDAVFTDNYTRLR[Aib]QVAAK[Aib]YLQSIKQKGGPSSGAPPPS (ends and bridges not checked) [P295] | 0.39 nM | 
HSDAVFTDNYTXLRXQLAAXKYLQSIXNXGGPSSGAPPPS (N-terminal hexanoyl (C6); Orn at 12, 27, 29; Aib at 15, 20) [P364] | 0.11 nM | 
HSDAVFTDNYTXLRXQIAAXKYLQSIXNXGGPSSGAPPPS (N-terminal hexanoyl (C6); Orn at 12, 27, 29; Aib at 15, 20) [P365] | 0.13 nM | 
Hexanoyl-HSDAVFTDNYTRLR[Aib]QVAA[Aib]KYLQSI[dK][dK]GGPSSGAPPPS (ends and bridges not checked) [P353] | 0.18 nM | 
Hexanoyl-HSDAVFTDNYTRLR[Aib]QVAA[Aib]KYLQSIKKGGPSSGAPPPS (ends and bridges not checked) [P351] | 0.11 nM | 
Hexanoyl-HSDAVFTDNYTRLR[Aib]QVAA[Aib]KYLQSIK[Aib]KGGPSSGAPPPS (ends and bridges not checked) [P349] | 0.08 nM | 

Binder | EC50 cAMP, Alpha Screen | EC50 cAMP, DiscoveRx
Hexanoyl-HSDAVFTDNYTRLR[Aib]QVAAK[Aib]YLQSIKQGGPSSGAPPPS (ends and bridges not checked) [P298] | 0.5 nM | 
HSDAVFTDNYTRLRKQVAAKKYLQSIKRGGPSSGAPPPS [P82] | 15.2 nM | 
HSDAVFTDNYTRLRXQVAAXKYLQSIKXGGPSSGAPPPS (N-terminal hexanoyl (C6); Aib at 15, 20; hR at 28) [P354] | 0.14 nM | 
HSDAVFTDNYTRLRKQVAAKKYLQSIKKGGPSSGAPPPS [P85] | 22.2 nM | 
HSDAVFTDNYTRLRKQVAAKKYLQSIKNGRPSSGAPPPS [P92] | 10.2 nM | 8.2 nM
Hexanoyl-HSDAVFTDNYTRLRKQVAAKKYLQSIKNGRPSSGAPPPS [P271] | 0.12 nM | 
Hexanoyl-HSDAVFTDNYTRLR[Orn]QVAAKKYLQSIKNKRYGGPSSGAPPPS (ends and bridges not checked) [P307] | 0.32 nM | 
Hexanoyl-HSDAVFTDNYTRLQ[Aib]QVAAKKYLQSIKNKRYGGPSSGAPPPS (ends and bridges not checked) [P258] | 0.17 nM | 
Hexanoyl-HSDAVFTDNYTRLR[Aib]QVAALKYLQSIKNKRYGGPSSGAPPPS (ends and bridges not checked) [P265] | 0.21 nM | 
Hexanoyl-HSDAVFTDNYTRLR[Aib]QVAAAKYLQSIKNKRYGGPSSGAPPPS (ends and bridges not checked) [P263] | 0.07 nM | 
Hexanoyl-HSDAVFTDNYTRLR[Aib]QVAAVKYLQSIKNKRYGGPSSGAPPPS (ends and bridges not checked) [P262] | 0.24 nM | 
Hexanoyl-HSDAVFTDNYTRLR[Aib]QVAA[Aib]KYLQSIKQGGPSSGAPPPS (ends and bridges not checked) [P297] | 0.36 nM | 
Hexanoyl-HSDAVFTDNYT[Aib]LR[Aib]QVAA[Aib]KYLQSIKNKRYGGPSSGAPPPS (ends and bridges not checked) [P345] | 1.17 nM | 
Hexanoyl-HSDAVFTDNYTALR[Aib]QVAA[Aib]KYLQSI[Orn]N[Orn]GGPSSGAPPPS [P366] | 2.6 nM | 
Hexanoyl-HSDAVFTDNYTRLRKQVAAKKYTQSIKNKRYGGPSSGAPPPS [P232] | 1.94 nM | 
Hexanoyl-HSDAVFTDNYTRLA[Aib]QVAA[Aib]KYLQSIKNKRYGGPSSGAPPPS (ends and bridges not checked) [P301] | 0.89 nM | 
Hexanoyl-HSDAVFTDNYTRLL[Aib]QVAA[Aib]KYLQSIKNKRYGGPSSGAPPPS (ends and bridges not checked) [P317] | 0.36 nM | 
Hexanoyl-HSDAVFTDNYTRLR[Aib]QAAA[Aib]KYLQSIKNKRYGGPSSGAPPPS (ends and bridges not checked) [P324] | 0.23 nM | 
Hexanoyl-HSDAVFTDNYTRLR[Aib]QVAA[Aib]AYLQSIKNKRYGGPSSGAPPPS (ends and bridges not checked) [P341] | 0.38 nM | 
Hexanoyl-HSDAVFTDNYTRLQ[Aib]QVAA[Aib]KYLQSIKNKRYGGPSSGAPPPS (ends and bridges not checked) [P302] | 0.45 nM | 
